One may read the Ki as a measure of affinity in units of concentration, obtained from inhibition or displacement. Low values mean tighter binding, high ones weaker binding.

Assay [1] addresses T1, Human EphA4 Fc fusion (Human, UniProt P54764 20-547).
T1 construct: SPR; Sino Biologics 11314-H03H
The experiment in a line: SPR.

Assay [2] deals with T2, Human EphA5, biotinylated (Human, UniProt P54756 25-573, limits assumed, 3.1 mol biotin/monomer).
T2 construct: SPR; R&D Systems 3036-A5
The experiment in a line: SPR. In general terms: Surface plasmon resonance follows binding to a sensor surface in real time, without labels.

For assay [3], the target named is T3, Human EphA6 Fc fusion (Human, UniProt Q9UF33 23-550, limits assumed).
T3 construct: SPR; R&D Systems 5606-A6
T3 sequence (looked up): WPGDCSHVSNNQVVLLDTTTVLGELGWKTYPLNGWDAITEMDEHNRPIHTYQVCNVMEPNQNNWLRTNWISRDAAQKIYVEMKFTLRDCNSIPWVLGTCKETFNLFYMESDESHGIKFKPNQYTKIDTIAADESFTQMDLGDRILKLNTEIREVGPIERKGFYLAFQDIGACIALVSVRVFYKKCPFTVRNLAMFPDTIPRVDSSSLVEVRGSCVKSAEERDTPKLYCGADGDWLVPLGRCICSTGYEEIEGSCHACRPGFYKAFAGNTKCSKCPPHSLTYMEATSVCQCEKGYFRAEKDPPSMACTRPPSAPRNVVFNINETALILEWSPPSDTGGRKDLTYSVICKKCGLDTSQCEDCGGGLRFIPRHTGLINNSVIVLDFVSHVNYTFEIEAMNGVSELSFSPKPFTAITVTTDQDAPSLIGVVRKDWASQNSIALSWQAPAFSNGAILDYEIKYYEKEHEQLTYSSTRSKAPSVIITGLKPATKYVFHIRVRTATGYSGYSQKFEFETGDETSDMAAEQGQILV
The experiment in a line: SPR.

Assay [4] concerns the target T4, Human EphA7 Fc fusion (Human, UniProt Q15375 28-555, limits assumed).
T4 construct: SPR; R&D Systems 6756-A7
T4 sequence (looked up): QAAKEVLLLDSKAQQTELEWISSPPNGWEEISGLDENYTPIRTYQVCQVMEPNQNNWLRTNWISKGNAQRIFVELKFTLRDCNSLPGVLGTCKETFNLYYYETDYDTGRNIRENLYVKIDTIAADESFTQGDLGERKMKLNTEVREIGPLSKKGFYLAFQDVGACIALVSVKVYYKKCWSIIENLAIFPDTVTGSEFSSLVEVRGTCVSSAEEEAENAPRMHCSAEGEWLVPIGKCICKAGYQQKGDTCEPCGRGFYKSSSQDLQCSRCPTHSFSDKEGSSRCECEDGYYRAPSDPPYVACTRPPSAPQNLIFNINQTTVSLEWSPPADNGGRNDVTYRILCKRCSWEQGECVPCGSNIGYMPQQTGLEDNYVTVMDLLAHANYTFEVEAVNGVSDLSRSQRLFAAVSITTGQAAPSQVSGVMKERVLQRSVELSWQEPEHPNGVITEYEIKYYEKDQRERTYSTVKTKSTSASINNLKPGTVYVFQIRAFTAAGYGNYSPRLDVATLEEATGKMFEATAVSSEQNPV
The experiment in a line: SPR.

In assay [5] the target is T5, Rat EphB1 Fc fusion (Rat, UniProt P09759 18-540, limits assumed).
T5 construct: SPR; R&D Systems 1596-B1
T5 sequence (looked up): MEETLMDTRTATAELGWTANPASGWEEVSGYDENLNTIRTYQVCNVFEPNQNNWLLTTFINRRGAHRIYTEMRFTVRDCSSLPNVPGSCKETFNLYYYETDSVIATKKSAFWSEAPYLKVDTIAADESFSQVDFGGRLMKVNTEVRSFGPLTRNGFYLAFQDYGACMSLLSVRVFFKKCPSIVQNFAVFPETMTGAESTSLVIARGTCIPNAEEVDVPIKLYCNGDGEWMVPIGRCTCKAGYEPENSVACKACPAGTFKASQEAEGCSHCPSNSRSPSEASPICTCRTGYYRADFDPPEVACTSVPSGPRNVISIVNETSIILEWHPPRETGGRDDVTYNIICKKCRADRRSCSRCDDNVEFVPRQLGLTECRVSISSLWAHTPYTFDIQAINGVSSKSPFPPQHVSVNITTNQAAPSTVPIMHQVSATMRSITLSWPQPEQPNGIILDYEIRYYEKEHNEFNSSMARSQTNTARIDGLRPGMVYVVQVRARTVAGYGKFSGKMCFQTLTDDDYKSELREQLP
The experiment in a line: SPR.

The target in assay [6] is T6, Human EphA1 Fc fusion (Human, UniProt P21709 26-547).
T6 construct: SPR; Sino Biologics 15789-H02H
T6 sequence (looked up): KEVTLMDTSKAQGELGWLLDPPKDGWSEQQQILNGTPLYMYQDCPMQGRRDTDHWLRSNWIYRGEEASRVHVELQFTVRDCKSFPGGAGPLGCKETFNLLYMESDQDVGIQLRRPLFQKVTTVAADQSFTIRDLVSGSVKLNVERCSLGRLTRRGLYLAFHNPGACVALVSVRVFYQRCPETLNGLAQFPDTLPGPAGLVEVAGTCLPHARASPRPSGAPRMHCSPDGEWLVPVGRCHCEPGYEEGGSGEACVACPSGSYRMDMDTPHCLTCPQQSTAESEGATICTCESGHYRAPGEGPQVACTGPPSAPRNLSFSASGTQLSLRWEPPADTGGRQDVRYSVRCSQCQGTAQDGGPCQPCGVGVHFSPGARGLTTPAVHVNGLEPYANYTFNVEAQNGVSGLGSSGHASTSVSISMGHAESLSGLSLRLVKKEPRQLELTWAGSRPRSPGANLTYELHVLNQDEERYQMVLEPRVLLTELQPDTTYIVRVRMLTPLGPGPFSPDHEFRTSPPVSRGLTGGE
The experiment in a line: SPR.

Assay [7] has as its target T7, Human EphA2 (Ecto), C-terminal polyHis (Human, UniProt P29317 24-537).
T7 construct: extracellular domain; R&D systems 3035-A2 or in-house
The experiment in a line: FP competition vs Reference Compound C (Study 2).

For assay [8], the target named is T8, Mouse EphA2 (Ecto) (Mouse, UniProt Q03145 26-538).
T8 construct: extracellular domain; Fluorescence polarisation assays; not shown: Fc fusion (R&D Systems 639-A2) or C-terminal polyHis (Sino Biological 50586-M08H)
T8 sequence (Q03145 26-538): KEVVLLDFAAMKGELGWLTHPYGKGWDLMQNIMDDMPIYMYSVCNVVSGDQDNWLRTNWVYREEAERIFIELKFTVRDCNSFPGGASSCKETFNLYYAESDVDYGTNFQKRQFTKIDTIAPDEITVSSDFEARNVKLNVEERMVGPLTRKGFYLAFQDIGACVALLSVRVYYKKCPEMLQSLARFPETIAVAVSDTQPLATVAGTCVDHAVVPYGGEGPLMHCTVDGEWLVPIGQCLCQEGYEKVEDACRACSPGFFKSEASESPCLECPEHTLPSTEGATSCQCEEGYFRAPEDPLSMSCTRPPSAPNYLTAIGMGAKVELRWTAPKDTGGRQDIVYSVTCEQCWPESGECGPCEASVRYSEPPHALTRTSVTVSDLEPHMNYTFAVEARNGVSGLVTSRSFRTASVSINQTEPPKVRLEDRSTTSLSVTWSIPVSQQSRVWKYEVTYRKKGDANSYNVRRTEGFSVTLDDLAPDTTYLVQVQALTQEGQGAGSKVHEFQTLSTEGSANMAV
The experiment in a line: FP competition vs Reference Compound C (Study 2).

The target of assay [9] is T9, Rat EphA2 (ligand binding), C-terminal polyHis (Rat).
T9 construct: In-house
The experiment in a line: FP competition vs Reference Compound C (Study 2).

The target in assay [10] is T10, Human EphA1 Fc fusion (Human, UniProt P21709 26-547).
T10 construct: Bought Fc fusion; also called Sino Biologics 15789-H02H; not shown: Fc of the bought fusion
T10 sequence (looked up): T6 sequence (looked up)
The experiment in a line: SPR, Fc-tagged protein captured by anti-human IgG.

T7 sequence (P29317 24-537): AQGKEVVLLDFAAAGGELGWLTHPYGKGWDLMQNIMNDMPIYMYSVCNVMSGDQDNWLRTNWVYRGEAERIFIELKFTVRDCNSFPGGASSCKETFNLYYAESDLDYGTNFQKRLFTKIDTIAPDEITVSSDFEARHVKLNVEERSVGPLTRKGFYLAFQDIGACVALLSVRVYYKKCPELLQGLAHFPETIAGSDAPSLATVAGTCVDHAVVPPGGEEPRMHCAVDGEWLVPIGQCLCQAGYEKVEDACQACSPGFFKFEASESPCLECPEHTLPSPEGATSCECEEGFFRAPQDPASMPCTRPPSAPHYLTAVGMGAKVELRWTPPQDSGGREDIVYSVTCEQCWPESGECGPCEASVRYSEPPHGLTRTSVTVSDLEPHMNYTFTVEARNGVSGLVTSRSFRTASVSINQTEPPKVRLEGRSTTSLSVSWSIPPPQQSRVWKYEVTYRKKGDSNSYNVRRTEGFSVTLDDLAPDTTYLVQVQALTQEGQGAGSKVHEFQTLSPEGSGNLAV
T2 sequence (P54756 25-573 limits assumed): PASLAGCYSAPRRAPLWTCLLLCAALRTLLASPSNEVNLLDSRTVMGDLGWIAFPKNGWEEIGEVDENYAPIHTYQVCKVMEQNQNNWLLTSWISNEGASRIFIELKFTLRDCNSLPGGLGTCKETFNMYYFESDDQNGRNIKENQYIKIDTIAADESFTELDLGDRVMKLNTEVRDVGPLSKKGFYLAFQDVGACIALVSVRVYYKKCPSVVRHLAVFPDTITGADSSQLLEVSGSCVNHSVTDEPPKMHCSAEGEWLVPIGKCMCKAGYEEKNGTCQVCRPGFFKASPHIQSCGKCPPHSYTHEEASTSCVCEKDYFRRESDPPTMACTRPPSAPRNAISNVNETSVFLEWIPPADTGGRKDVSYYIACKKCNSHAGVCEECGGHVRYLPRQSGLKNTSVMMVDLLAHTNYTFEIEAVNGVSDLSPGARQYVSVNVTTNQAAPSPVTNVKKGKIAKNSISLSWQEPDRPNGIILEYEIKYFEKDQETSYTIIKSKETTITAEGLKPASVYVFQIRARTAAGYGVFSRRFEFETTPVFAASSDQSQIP
T1 sequence (P54764 20-547 limits assumed): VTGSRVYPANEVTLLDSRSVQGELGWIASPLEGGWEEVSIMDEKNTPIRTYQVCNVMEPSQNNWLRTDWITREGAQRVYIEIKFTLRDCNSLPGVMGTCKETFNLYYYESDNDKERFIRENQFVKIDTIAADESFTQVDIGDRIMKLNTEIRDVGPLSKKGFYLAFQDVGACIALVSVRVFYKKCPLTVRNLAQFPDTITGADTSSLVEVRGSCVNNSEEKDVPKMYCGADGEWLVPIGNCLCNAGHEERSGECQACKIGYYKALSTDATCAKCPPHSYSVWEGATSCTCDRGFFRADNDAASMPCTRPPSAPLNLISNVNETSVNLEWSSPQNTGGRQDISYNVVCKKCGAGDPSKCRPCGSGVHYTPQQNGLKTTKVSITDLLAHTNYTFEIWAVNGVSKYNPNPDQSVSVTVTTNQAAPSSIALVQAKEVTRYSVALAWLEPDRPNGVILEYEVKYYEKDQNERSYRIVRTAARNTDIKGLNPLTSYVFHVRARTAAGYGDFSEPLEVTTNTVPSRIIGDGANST

B1: BCY6033 (peptide)
peptide: AXDCPLVNPLCLHPGWTC
modifications: not fully specified; as BCY6014 (N-terminal (β-Ala)-Sar10; HArg; TATA scaffold on the 3 Cys) + ValCit-MMAE
notes: Bicycle drug conjugate (BDC)
As for B1, the binding result in assay [1], in assay [2], in [3], in assay [4], in assay [5] and in [6] was “no binding” each time. The results for the Ki in [7], in [8] and in [9] were 9.9 nM, 34.2 nM and 13.4 nM, respectively.

B2: BCY6082 (peptide)
peptide: AXDCPLVNPLCLHPGWTC
modifications: not fully specified; N-terminal (β-Ala)-Sar10 spacer precedes SEQ ID NO: 11; HArg (homoarginine) at residue 2 of SEQ ID NO: 11; three Cys cyclised on the TATA scaffold; DM1-SS(SO3H)- (DM1-SO3H-SPDB) on the N-terminal amine
Regarding B2, the binding result in assay [10] was “no binding (tested: 5 µM)”.

B3: BCY6033 (peptide)
peptide: AXDCPLVNPLCLHPGWTC
modifications: not fully specified; N-terminal (β-Ala)-Sar10 spacer precedes SEQ ID NO: 11; HArg (homoarginine) at residue 2 of SEQ ID NO: 11; three Cys cyclised on the TATA scaffold; ValCit-MMAE (MMAE-PABC-Cit-Val-glutarate) on the N-terminal amine
On to B3, for which the binding result in [10] is recorded as “no binding (tested: 5 µM)”.

B4: BCY6082 (peptide)
peptide: AXDCPLVNPLCLHPGWTC
modifications: not fully specified; as BCY6014 (N-terminal (β-Ala)-Sar10; HArg; TATA scaffold on the 3 Cys) + DM1-SS(SO3H)-
notes: Bicycle drug conjugate (BDC)
For B4, the binding result in [1], in assay [2], in assay [3], in assay [4], in assay [5] and in assay [6] was “no binding” in each case. Besides, the results for the Ki in assay [7], in [8] and in assay [9] were 10.5 nM, 34.1 nM and 13.9 nM, respectively.
